Source: publication PMC6829862, “Gγ and Gα Identity Dictate a G-Protein Heterotrimer Plasma Membrane Targeting” (Cells, 2019)

Molecular target: T1, mCherry–Gβ1γ2 dimer (UniProt P62873 1-340; P59768 1-71, 20-carbon geranylgeranyl lipid on the cysteine of the C-terminal CaaX motif (said of Gγ2 in general))
T1 construct: Gβ1 subunit; cDNA in pcDNA3.1+ from UMR cDNA Resource Center; FP cloned at the N-terminus; Gγ2 subunit; source: HEK 293, transiently co-transfected (mCherry–Gβ1 and Gγ2), in living cells; not shown: mCherry, N-terminal, kept
Experiment: FRET or BRET; FLIM-FRET in living transiently transfected HEK 293 cells at 37 °C; donor Citrine in Gα, acceptor mCherry on Gβ1 with the appropriate Gγ; efficiency E = 1 − τda/τd from the short lifetime component τ1 (donor alone 2.7 ± 0.1 ns), analysed only at the plasma membrane; GppNHp added to the culture did not change the signal
Settings: partners not purified

B1: Citrine–Gαi3 (natural protein)
chain: MGCTLSAEDKAAVERSKMIDRNLREDGEKAAKEVKLLLLGAGESGKSTIVKQMKIIHEDGYSEDECKQYKVVVYSNTIQSIIAIIRAMGRLKIDFGEAARADDARQLFVLAGSAEEGVMTPELAGVIKRLWRDGGVQACFSRSREYQLNDSASYYLNDLDRISQSNYIPTQQDVLRTRVKTTGIVETHFTFKDLYFKMFDVGGQRSERKKWIHCFEGVTAIIFCVALSDYDLVLAEDEEMNRMHESMKLFDSICNNKWFTETSIILFLNKKDLFEEKIKRSPLTICYPEYTGSNTYEEAAAYIQCQFEDLNRRKDTKEIYTHFTCATDTKNVQFVFDAVTDVIIKNNLKECGLY
notes: cDNA in pcDNA3.1+ from UMR cDNA Resource Center; also called loop-tagged Gαi3; source: HEK 293, transiently transfected, in living cells; not shown: Citrine, internal (after residue 114), kept
FRET efficiency: 50%

B2: Citrine–GαsIEK (natural protein)
chain: MGCLGNSKTEDQRNEEKAQREANKKAAAQLQKDKQVYRATHRLLLLGAGESGKSTIVKQMRILHVNGFNGNSDGEKATKVQDIKNNLKEAIETIVAAMSNLVPPVELANPENQFRVDYILSVMNVPDFDFPPEFYEHAKALWEDEGVRACYERSNEYQLIDCAQYFLDKIDVIKQADYVPSDQDLLRCRVLTSGIFETKFQVDKVNFHMFDVGGQRDERRKWIQCFNDVTAIIFVVASSSYNMVIREDNQTNRLQEALNLFKSIWNNRWLRTISVILFLNKQDLLAEKVLAGKSKIEDYFPEFARYTTPEDATPEPGEDPRVTRAKYFIRDEFLRISTASGDGRHYCYPHFTCAVDTENIRRVFNDCRDIIQRMHLRQYELL
notes: Gαs subunit with the conserved region Ile26–Glu27–Lys28 (G.HN.43–45) changed to three alanines; cDNA from UMR cDNA Resource Center; the L1 loop Glu71-Ser82 exchanged for the fluorescent protein as in m1; Mutations made with the Quick Change method on the Gαs fusion; also called mutant GαsIEK protein; source: HEK 293, transiently transfected; in living cells (FLIM-FRET) and in cell lysate or …
FRET efficiency: 12.9%
